This note sets out measurements from paper PMC9482650, “Quantitative fragmentomics allow affinity mapping of interactomes” (Nature Communications, 2022).

Some targets named below: FRMPD2_3, Q68DX3; GRIP2_3, Q9C0E4; GRIP2_4, Q9C0E4; IL16_3, Q14005; Inadl_1, Q8NI35; LDB3, O75112; LIMK2, P53671; MAGI2_6, Q86UL8; CASK, O14936; GRIP2_5, Q9C0E4; GRIP2_6, Q9C0E4; MAGI2_4, Q86UL8; PTPN3, P26045; TJP1_3, Q07157; DLG4_1, P78352; Inadl_8, Q8NI35; MAGI3_2, Q5TCQ9.
Holding throughout (assay): holdup assay
Parameters in all cases: key: below the threshold = too weak to quantify, mostly under pKd 3.1 to 4
Holding throughout (settings): plain residues with an end cap or a label only (N-terminal biotin on a linker: ado-ado)

For the next assay, the target named is T1, APBA2_2, Q99767.
T1 sequence (Q99767 654-744, limits assumed, looked up): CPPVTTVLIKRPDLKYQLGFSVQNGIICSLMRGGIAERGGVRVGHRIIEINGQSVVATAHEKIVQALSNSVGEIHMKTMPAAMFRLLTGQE

The target of the next assay is T2, CARD11, Q9BXL7.
T2 sequence (Q9BXL7 662-765, limits assumed, looked up): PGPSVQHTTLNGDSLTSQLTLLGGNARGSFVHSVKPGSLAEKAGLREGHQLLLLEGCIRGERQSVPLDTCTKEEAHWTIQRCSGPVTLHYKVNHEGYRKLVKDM

Another assay addresses T3, DFNB31_2, Q9P202.
T3 sequence (Q9P202 274-371, limits assumed, looked up): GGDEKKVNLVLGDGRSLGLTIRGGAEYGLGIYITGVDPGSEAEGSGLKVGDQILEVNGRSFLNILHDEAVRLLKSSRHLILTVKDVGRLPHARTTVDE

For another assay, the target named is T4, DLG3_2, Q92796.
T4 sequence (Q92796 221-321, limits assumed, looked up): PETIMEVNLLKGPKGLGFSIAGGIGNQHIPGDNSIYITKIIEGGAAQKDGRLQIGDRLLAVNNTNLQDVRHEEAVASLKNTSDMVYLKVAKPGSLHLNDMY

In another assay the target is T5, LNX2_2, Q8N448.
T5 sequence (Q8N448 334-432, limits assumed, looked up): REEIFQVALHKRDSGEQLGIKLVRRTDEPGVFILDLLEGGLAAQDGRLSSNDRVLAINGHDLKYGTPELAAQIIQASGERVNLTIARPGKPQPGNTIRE

The target in a further assay is T6, MPDZ_12, O75970.
T6 sequence (O75970 1857-1958, limits assumed, looked up): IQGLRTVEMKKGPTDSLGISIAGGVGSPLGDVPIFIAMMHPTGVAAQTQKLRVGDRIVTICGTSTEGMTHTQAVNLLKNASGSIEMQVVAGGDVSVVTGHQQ

In another assay the target is T7, MPP2, Q14168.
T7 sequence (Q14168 180-250, limits assumed, looked up): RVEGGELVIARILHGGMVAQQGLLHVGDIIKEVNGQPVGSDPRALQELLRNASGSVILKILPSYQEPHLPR

A further assay deals with T8, PDZD7_3, Q9H5P4.
T8 sequence (Q9H5P4 857-944, limits assumed, looked up): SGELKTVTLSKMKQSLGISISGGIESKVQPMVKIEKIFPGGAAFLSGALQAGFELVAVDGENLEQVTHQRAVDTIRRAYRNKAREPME

Another assay deals with T9, TJP3_3, O95049.
T9 sequence (O95049 375-456, limits assumed, looked up): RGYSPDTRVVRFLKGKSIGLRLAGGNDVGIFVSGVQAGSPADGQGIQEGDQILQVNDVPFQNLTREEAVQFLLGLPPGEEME

The next assay has as its target T10, DLG3_3, Q92796.
T10 sequence (Q92796 374-475, limits assumed, looked up): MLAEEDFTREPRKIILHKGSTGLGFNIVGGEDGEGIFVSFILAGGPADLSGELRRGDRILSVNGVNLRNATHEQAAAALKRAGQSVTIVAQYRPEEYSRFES

For another assay, the target named is T11, SHANK1, Q9Y566.
T11 sequence (Q9Y566 658-767, limits assumed, looked up): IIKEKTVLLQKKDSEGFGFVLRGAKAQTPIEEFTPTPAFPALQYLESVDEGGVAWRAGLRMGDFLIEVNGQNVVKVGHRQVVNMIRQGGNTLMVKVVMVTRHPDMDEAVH

TJP1_3, Q07157, sequence (Q07157 416-512): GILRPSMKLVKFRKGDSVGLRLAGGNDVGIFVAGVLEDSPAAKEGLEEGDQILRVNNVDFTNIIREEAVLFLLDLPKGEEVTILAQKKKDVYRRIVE
IL16_3, Q14005, sequence (Q14005 1107-1207): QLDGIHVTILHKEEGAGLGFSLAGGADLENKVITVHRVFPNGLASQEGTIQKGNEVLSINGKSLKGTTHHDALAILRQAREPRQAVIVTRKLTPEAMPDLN
LDB3, O75112, sequence (O75112 1-94): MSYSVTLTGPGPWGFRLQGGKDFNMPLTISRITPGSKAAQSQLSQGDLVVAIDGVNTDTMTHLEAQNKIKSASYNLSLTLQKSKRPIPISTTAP
GRIP2_6, Q9C0E4, sequence (Q9C0E4 648-740): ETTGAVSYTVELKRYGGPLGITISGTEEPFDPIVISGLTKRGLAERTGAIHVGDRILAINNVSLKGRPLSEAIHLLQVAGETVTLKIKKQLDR
MAGI2_6, Q86UL8, sequence (Q86UL8 1141-1229): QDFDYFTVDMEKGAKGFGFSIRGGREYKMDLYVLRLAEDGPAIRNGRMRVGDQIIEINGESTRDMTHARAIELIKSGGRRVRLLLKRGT
GRIP2_5, Q9C0E4, sequence (Q9C0E4 544-642): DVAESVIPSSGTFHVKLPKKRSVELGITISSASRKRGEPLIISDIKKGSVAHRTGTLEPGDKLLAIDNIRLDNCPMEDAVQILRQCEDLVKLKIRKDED
GRIP2_3, Q9C0E4, sequence (Q9C0E4 238-339): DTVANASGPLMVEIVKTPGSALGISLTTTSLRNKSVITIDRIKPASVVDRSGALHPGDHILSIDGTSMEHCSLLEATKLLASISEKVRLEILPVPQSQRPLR
GRIP2_4, Q9C0E4, sequence (Q9C0E4 446-548): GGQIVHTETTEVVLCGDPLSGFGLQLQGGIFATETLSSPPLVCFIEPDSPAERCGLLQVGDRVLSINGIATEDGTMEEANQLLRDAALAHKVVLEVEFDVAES
Inadl_1, Q8NI35, sequence (Q8NI35 113-229): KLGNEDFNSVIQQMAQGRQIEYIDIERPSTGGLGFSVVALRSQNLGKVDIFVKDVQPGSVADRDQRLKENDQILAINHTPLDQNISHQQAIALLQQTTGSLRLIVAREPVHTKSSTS
CASK, O14936, sequence (O14936 487-570): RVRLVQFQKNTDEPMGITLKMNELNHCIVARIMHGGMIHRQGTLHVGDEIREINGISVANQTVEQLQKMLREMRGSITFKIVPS
LIMK2, P53671, sequence (P53671 143-248): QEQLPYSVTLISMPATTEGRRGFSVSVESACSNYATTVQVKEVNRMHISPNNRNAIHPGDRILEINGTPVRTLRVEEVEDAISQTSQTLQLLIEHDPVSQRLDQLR
FRMPD2_3, Q68DX3, sequence (Q68DX3 1073-1166): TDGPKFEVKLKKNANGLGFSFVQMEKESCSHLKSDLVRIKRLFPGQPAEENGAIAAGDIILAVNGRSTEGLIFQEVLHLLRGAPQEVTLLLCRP
Inadl_8, Q8NI35, sequence (Q8NI35 1425-1530): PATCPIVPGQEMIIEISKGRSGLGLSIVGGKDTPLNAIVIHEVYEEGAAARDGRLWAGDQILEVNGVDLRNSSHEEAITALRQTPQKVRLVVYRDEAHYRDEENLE
PTPN3, P26045, sequence (P26045 505-587): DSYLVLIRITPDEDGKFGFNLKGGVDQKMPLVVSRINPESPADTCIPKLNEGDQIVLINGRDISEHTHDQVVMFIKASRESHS
MAGI2_4, Q86UL8, sequence (Q86UL8 772-865): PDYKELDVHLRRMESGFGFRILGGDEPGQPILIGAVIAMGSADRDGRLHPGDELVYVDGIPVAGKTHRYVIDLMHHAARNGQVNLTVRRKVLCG
DLG4_1, P78352, sequence (P78352 62-152): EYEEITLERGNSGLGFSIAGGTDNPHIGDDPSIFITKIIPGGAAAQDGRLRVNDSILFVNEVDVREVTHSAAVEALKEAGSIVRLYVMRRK
MAGI3_2, Q5TCQ9, sequence (Q5TCQ9 398-503): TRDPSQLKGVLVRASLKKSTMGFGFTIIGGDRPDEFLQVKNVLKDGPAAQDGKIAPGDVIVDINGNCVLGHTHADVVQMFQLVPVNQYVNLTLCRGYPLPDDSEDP

With KSGKQTMLVV [TRIM29, Q14134;Q14134-2], the pKd (as a rule, the negative decadic logarithm of the Kd, by convention in mol/L) is “below the threshold” with APBA2_2, Q99767; “below the threshold” with CARD11, Q9BXL7; “below the threshold” with DFNB31_2, Q9P202; “below the threshold” in the assay with DLG3_2, Q92796; “below the threshold” with FRMPD2_3, Q68DX3; “below the threshold” in the assay with GRIP2_3, Q9C0E4. The pKd entry in the assay with GRIP2_4, Q9C0E4 was “below the threshold”; in the assay with IL16_3, Q14005 it was “below the threshold”; with Inadl_1, Q8NI35 it was “below the threshold”; with LDB3, O75112, “below the threshold”; with LIMK2, P53671, “below the threshold”; with LNX2_2, Q8N448 it was 5.19. The pKd entry was “below the threshold” in the assay with MAGI2_6, Q86UL8; “below the threshold” with MPDZ_12, O75970; “below the threshold” in the assay with MPP2, Q14168; “below the threshold” with PDZD7_3, Q9H5P4; “below the threshold” in the assay with TJP3_3, O95049.

Turning to LPAHHNATRL [SLC34A1, Q06495;Q06495-1], the pKd entry with APBA2_2, Q99767 is recorded as “below the threshold”; with CARD11, Q9BXL7, “below the threshold”; with CASK, O14936, “below the threshold”; in the assay with DFNB31_2, Q9P202, “below the threshold”; with DLG3_2, Q92796, “below the threshold”; in the assay with DLG3_3, Q92796, “below the threshold”. Further, the pKd entry is given as “below the threshold” in the assay with FRMPD2_3, Q68DX3; “below the threshold” in the assay with GRIP2_3, Q9C0E4; “below the threshold” with GRIP2_4, Q9C0E4; “below the threshold” in the assay with GRIP2_5, Q9C0E4; “below the threshold” with GRIP2_6, Q9C0E4; “below the threshold” with IL16_3, Q14005. In addition, the pKd result in the assay with Inadl_1, Q8NI35 is “below the threshold”; with LDB3, O75112 it was “below the threshold”; with LIMK2, P53671, “below the threshold”; with LNX2_2, Q8N448 it was “below the threshold”; with MAGI2_4, Q86UL8 it was “below the threshold”; in the assay with MAGI2_6, Q86UL8, “below the threshold”. Also, the pKd entry was “below the threshold” with MPDZ_12, O75970; “below the threshold” in the assay with MPP2, Q14168; 4.43 with PDZD7_3, Q9H5P4; 4 in the assay with PTPN3, P26045; 5.39 in the assay with SHANK1, Q9Y566; “below the threshold” with TJP1_3, Q07157. Further, the pKd entry in the assay with TJP3_3, O95049 is “below the threshold”.

Consider VYPNAKVELV [PDLIM4_iso2, P50479;P50479-1], for which the negative-log Kd (pKd) result is “below the threshold” with APBA2_2, Q99767; “below the threshold” in the assay with CARD11, Q9BXL7; “below the threshold” with CASK, O14936; “below the threshold” in the assay with DFNB31_2, Q9P202; “below the threshold” in the assay with DLG3_2, Q92796; “below the threshold” in the assay with DLG3_3, Q92796. The pKd entry with DLG4_1, P78352 was “below the threshold”; in the assay with FRMPD2_3, Q68DX3, “below the threshold”; with GRIP2_3, Q9C0E4, “below the threshold”; with GRIP2_4, Q9C0E4, “below the threshold”; with GRIP2_5, Q9C0E4, “below the threshold”; with GRIP2_6, Q9C0E4, “below the threshold”. For the same molecule, the pKd result is “below the threshold” in the assay with IL16_3, Q14005; “below the threshold” with Inadl_1, Q8NI35; “below the threshold” with Inadl_8, Q8NI35; “below the threshold” with LDB3, O75112; “below the threshold” with LIMK2, P53671; 4.62 with LNX2_2, Q8N448. Also, the pKd result in the assay with MAGI2_6, Q86UL8 is “below the threshold”; in the assay with MAGI3_2, Q5TCQ9, “below the threshold”; in the assay with MPDZ_12, O75970, “below the threshold”; in the assay with MPP2, Q14168 it was “below the threshold”; with PDZD7_3, Q9H5P4, 3.99; in the assay with SHANK1, Q9Y566 it was “below the threshold”. For the same molecule, the pKd entry is “below the threshold” with TJP1_3, Q07157 and “below the threshold” in the assay with TJP3_3, O95049.

With YLEPVLSSEL [ATP2A2, P16615;P16615-3], the pKd entry with APBA2_2, Q99767 was “below the threshold”; with CARD11, Q9BXL7 it was “below the threshold”; in the assay with CASK, O14936, “below the threshold”; with DFNB31_2, Q9P202, “below the threshold”; in the assay with DLG3_2, Q92796, 4.18; with DLG3_3, Q92796, “below the threshold”. In addition, the pKd entry was “below the threshold” with DLG4_1, P78352; “below the threshold” in the assay with FRMPD2_3, Q68DX3; “below the threshold” with GRIP2_3, Q9C0E4; “below the threshold” with GRIP2_4, Q9C0E4; “below the threshold” with GRIP2_5, Q9C0E4; “below the threshold” with GRIP2_6, Q9C0E4. For the same molecule, the pKd result with IL16_3, Q14005 is listed as “below the threshold”; with Inadl_1, Q8NI35, “below the threshold”; with Inadl_8, Q8NI35, “below the threshold”; in the assay with LDB3, O75112 it was “below the threshold”; in the assay with LIMK2, P53671 it was “below the threshold”; with LNX2_2, Q8N448, “below the threshold”. Further, the pKd entry in the assay with MAGI2_4, Q86UL8 is “below the threshold”; in the assay with MAGI2_6, Q86UL8, 3.91; with MAGI3_2, Q5TCQ9 it was “below the threshold”; in the assay with MPP2, Q14168, “below the threshold”; with PDZD7_3, Q9H5P4, 4.91; with PTPN3, P26045, 4.93. Moreover, the pKd was 4.67 with SHANK1, Q9Y566; “below the threshold” with TJP1_3, Q07157; “below the threshold” in the assay with TJP3_3, O95049.
